From the DeepSol protein solubility set

experiment: soluble on expression in E. coli; label from the status in PepcDB or PDB records

| Sequence | soluble on expression in E. coli |
| --- | --- |
| MATFEEVSVLGFEEFDKAVKEHESKTIFAYFSGSKDTEGKSWCPDCVEAEPVIREGLKHVTEDCVFIYCQVGDKPYWKDPNNDFRQKLKITAVPTLLKYGTPQKLVESECCQSSLVEMIFSED | soluble |
| MATGAMSRSNDWTKSLSDAQPVPYWLDDPGRPRPEAALTGTETCDLLVVGGGYSGLWTALIAKERDPGRDVVLIEGREVGWAASGRNGGFCAASLTHGLSNGLTRWPDDIHRLEELGARNLDAIEAAVARHGLDCDFERTGEIDVATEPHQARELEEWYAEIRAQGLAEGVEYLDAEAVREQVDSPTFRAGLWDRRGVAMVNPAKLAWGLKRACLALGVRVHEHTPALTLKPYGAGMAVRTPYGAVRARTVALGTNVFPNLVRRVRPYTVPVYDYALMTEPLSDGQLASVGWQNRQGLGDSANQFHYFRLSRDNRILWGGYDAVYPYGGRVRAEYDHRPETYAKLAGHFFTCFPQLEGVRFTHAWGGAIDTCSRFSAFFGTAHRGRVAYAAGYTGLGVGATRFGAEVMLDLLSGERTERTELEMVRTKPLPFPPEPFAWTGIALTKWSLARADAHGGRRNLWLRTMDRLGLGFDSLEHHHHHH | not soluble |
| MATIRTKFRSSSAEGREGALYYQVIHNRVVRQISTGYKLFASEWDQRSEAVIPCQHPAGMERDNYLLSVGERIRRDKIRLEKAIRTLSQSGPFTADDIVIRFHDSGQEPSFNDYIRQQIVRLKRLGKIRTSETYTAALKSFSSFMKGSDILFGELSSDLLMEYEAYLKNRGNSPNTISFYMRILKAVYNRAVENGLTGQRNLFKSVYTGVEKTLKRAIHLNDIRRIKRLDLSLKPHLDFARDMFLFCFYTRGMSFVDMAYLKKGDIANGILTYRRKKTGQQLFIRWEKCMQEIIKLFCLSVQDFKVVH | not soluble |
| MATLLRSLALFKRNKDKPPITSGSGGAIRGIKHIIIVPIPGDSSITTRSRLLDRLVRLIGNPDVSGPKLTGALIGILSLFVESPGQLIQRITDDPDVSIRLLEVVQSDQSQSGLTFASRGTNMEDEADQYFSHDDPISSDQSRFGWFENKEISDIEVQDPEGFNMILGTILAQIWVLLAKAVTAPDTAADSELRRWIKYTQQRRVVGEFRLERKWLDVVRNRIAEDLSLRRFMVALILDIKRTPGNKPRIAEMICDIDTYIVEAGLASFILTIKFGIETMYPALGLHEFAGELSTLESLMNLYQQMGETAPYMVILENSIQNKFSAGSYPLLWSYAMGVGVELENSMGGLNFGRSYFDPAYFRLGQEMVRRSAGKVSSTLASELGITAEDARLVSEIAMHTTEDKISRAVGPRQAQVSFLHGDQSENELPRLGGKEDRRVKQSRGEARESYRETGPSRASDARAAHLPTGTPLDIDTASESSQDPQDSRRSADALLRLQAMAGISEEQGSDTDTPIVYNDRNLLD | not soluble |
| MATLVVNKLGAGVDSGRQGSRGTAVVKVLECGVCEDVFSLQGDKVPRLLLCGHTVCHDCLTRLPLHGRAIRCPFDRQVTDLGDSGVWGLKKNFALLELLERLQNGPIGQYGAAEESIGISGESIIRCDEDEAHLASVYCTVCATHLCSECSQVTHSTKTLAKHRRVPLADKPHEKTMCSQHQVHAIEFVCLEEGCQTSPLMCCVCKEYGKHQGHKHSVLEPEANQIRASILDMAHCIRTFTEEISDYSRKLVGIVQHIEGGEQIVEDGIGMAHTEHVPGTAENARSCIRAYFYDLHETLCRQEEMALSVVDAHVREKLIWLRQQQEDMTILLSEVSAACLHCEKTLQQDDCRVVLAKQEITRLLETLQKQQQQFTEVADHIQLDASIPVTFTKDNRVHIGPKMEIRVVTLGLDGAGKTTILFKLKQDEFMQPIPTIGFNVETVEYKNLKFTIWDVGGKHKLRPLWKHYYLNTQAVVFVVDSSHRDRISEAHSELAKLLTEKELRDALLLIFANKQDVAGALSVEEITELLSLHKLCCGRSWYIQGCDARSGMGLYEGLDWLSRQLVAAGVLDVA | soluble |
| MATMDEKPLYGLERTVFRQLLHLFSRYADVIEKVILFGSRARGDYKEGSDIDLAIKFRKPGGPLYLLQSDLDELPIIYPIDVVDYNQIHNEQLKMNIDQEGKTIFQTNEHGKVMVTMSRLMDRFYDFERALSKLRQSAARDAQTDDLVVDATIQRFEFTYELAWKWMKLYLEHQGYAEVTSPRKTIREAFREGLIQDGETWLRMLEDRNRTSHTYDEETAMDIYERIRIHYIPLFDRLLDEMKQRLDSAT | not soluble |
| MATMLSRYFLLTVAALFAQSASAIEVLTSIKPIQMITYELMLGTGTPDVLLPSGASPHDYALRPSDVKRIQQADLVIWFGQDLEPFMSKLLEGRTSALTLSQVPNLALREYGEEEQHEHDGHHHGHYDPHFWLGIGPVGQVASAITAKLIELDADQQQQYQDNLVRFLANLAEQDNTIGEKLKPVTTVPYYVFHDAYGYFEQHFALNNLGHFTVSPERKPGAKTLIAIKKTLNDQLAKCVFSEPQFEPAIIETVVRGTSAKIGVLDPLGISIELQAGSYFAFLNSLAESYYACLSQS | not soluble |
| MATPETRRRPNILVTGSPGTGKSTLGQQVAEKLGFVFIEVSKEVRENNLQGDFDEQYNCHVLDEDKLLDHISDRLDSDEGGIVVDYHGCDLFPERWFDVVVVLRCPTEKLYDRLQSRGYSEFKIKENVECEIFGTLLEEARESYSEDIVHELQSETTEQMEENLERICELAGEFKNEHTMEQ | not soluble |
| MATQARLPLPVGSTTSVSVVIPAKNVAAYVGETLASALAQGEVTEVIVVDDGSTDNTIAIVRAIRDPRLRLMTNDSAGVSAARNLGARHASGEWLLFLDADDRLRPGAVAALLAAARGAPRAVLVYGDYNTIDSEGRQVGRRDLLKGRRKPSGDVLTRLAASNFIVNGGIALARAEAFRAIGGFDTSLRYCEDWHCWCRLAAIGEFEFAPKLLLDYRLHTANTMNAAVRTPQDFFPAIARVFDDGLILARLPEGTAARLRQAAEIHLVTYSAMQAVRFGRYRQAFTYLGMVGRRSLKSLPRSALRVALACFGILEHHHHHH | not soluble |
| MATQDDAHLAELKKKRTFRKFMYRGVDLDQLLDMSREQFTKLLPCRMRRRLDRGLKRKHLALIAKVQKAKKAAGVLEKPATVKTHLRDMIILPELVGGVIGIYNGKVFNQTEIKPEMIGFYLGEFAISYKPVKHGRPGIGATHSSRFIPLK | not soluble |
| MATQQAKILCCGDVNGNFVELIKKISTTEKKNGPFDSLFCVGEFFGDDDDSNEKVINGNIEFPIPTYILGPANPRYSYLYPEESIEFSSNLTYLGKKGLLNTASGLQIAYLSGVEGSSKDLSCFDKADVEELLIPLGTQVGFSGTDILLTSVWPADIARHSHNQPSKPQPGSVLLSKLAAHLKPRYHFAGLGVHYERQPYRNHRVLLEPARHTTRFIGLAAIGNPEKQKWLYACNVKPMRKMEKEELTAQPPNASEFPYRELLEEIAAKETLSRMNGNGQRPEGSQYRFEMGGAEDGAGNGRKRHNDGGNDGPRNKQPVGPCWFCLSNVDAEKHLVVAIGNKCYAAMPKGPLTEDHVMVLSVGHIQSQVSAPVEVRDEIEKFKSAFTLMANKQGKALVTFERNFRTQHLQVQMVMIDKSSSKALKSSFTTAAACAGFELVTMGPDESLLDMVNEGCPYFVAELPDGSKLFTRSMKGFPLHFGREVLASTPILDCEDKVDWKACVLAKEKEVELVNKLKSDFKPFDFTAEDDSD | not soluble |
| MATRNEEILRKPDWLKIKLNTNDNYTGLKKMMREKNLHTVCEEAKCPNIHECWGARRTATFMILGAVCTRACRFCAVKTGLPNELDLNEPERVAESVELMNLKHVVITAVARDDLRDQGSNVYAETVRKVRERNPFTTIEILPSDMGGDYEALETLMASRPDILNHNIETVRRLTPRVRARATYDRTLQFLRRSKELQPDIPTKSSLMVGLGETMEEIYETMDDLRANDVDILTIGQYLQPSRKHLKVEKYYTPLEFGKMRKIAMEKGFKHCQAGPLVRSSYHADEQVNEAAKEKQRQGEEQLN | not soluble |
| MATTTMTMIQALRSAMDVMLERDDNVVVYGQDVGYFGGVFRCTEGLQTKYGKSRVFDAPISESGIVGTAVGMGAYGLRPVVEIQFADYFYPASDQIVSEMARLRYRSAGEFIAPLTLRMPCGGGIYGGQTHSQSPEAMFTQVCGLRTVMPSNPYDAKGLLIASIECDDPVIFLEPKRLYNGPFDGHHDRPVTPWSKHPHSAVPDGYYTVPLDKAAITRPGNDVSVLTYGTTVYVAQVAAEESGVDAEVIDLRSLWPLDLDTIVESVKKTGRCVVVHEATRTCGFGAELVSLVQEHCFHHLEAPIERVTGWDTPYPHAQEWAYFPGPSRVGAALKKVMEV | soluble |
| MATWEEYLGAQQANDGVQFTWNMWPHSRVDSQKLVVPLTCFFTPLKERPSTEVAQPPLEYDPVLCQKASCKAILNPLCAVDYRAKIWMCPFCNNRNPFPAHYAAIAEDNRPPELYPQFTTIEYTLRKATTMPPIFVFVVDTCMTAEELKSLKECLQTALSLLPADALVGLITYGRMVQLHELNTQGISRSYVFKGTKEVTAKQIKDVMAGGGLSQRPAAGAPGAPAGAPGAPMAMGSGAAPLGQLPGSGLPGGLPRGGGPPLPGAAQGIVAPGGGAPVPHAPANKFLQPISECDESINDLIDQISIDRWPVPQGHRPLRATGAALAVAVTLLESCFPSTGARIMSFIGGACTHGPGAVVGEELKNPIRSWNSIKEDAAPYMKKAIKFYDGLAARIVKNGHAVDVYSCALDQTGLLEMKNMFNSSGGHVVMGDSFNSSLFKQTYQRSFDKDSAGNLKMGFNATMEVKVGAGLKIEGVLGCCASGNVRNANVSDQEMGIGGTCQWKFGAISPRTTIGVVFEIAAQHGSAIPQGGRGMVQFVTQYQHADGRKRIRVTTTCRTWADMATQQPNIAYGFDQEAAAVAIARLASFRASNENDTPEALRWLDRSLIRLCQKFGEYSKDDPNSFRLSDKFSLFPQFMFHLRRSQFLQVFNNSPDETAYYRHILFSENVLESTTMIQPVLFSYSFNGPPEPVLLDTSSILADRILLMDDYFHVLIYHGQTIAQWRKQNFHENPQYATFKQLLEAPVADATSILQERFPMPRYIVTEHEGSQARFLLSKVNPSLTHNNPYANEAGSAVFTDDVSLQVFMEHLKKLSSSSST | not soluble |
| MAVCSLVAKITYAEERQQNNYPIILVNGFAGWGREEMLGVKYWGGVHDIQEDLKRNGYTVHTAAVGPVSSNWDRACELYAQINGGTVDYGAAHAEKHGHKRFGRTYSGFAPNWSETNKIHLVGHSMGGQTIRTLVQLLKEGSYEEKNYVKNHPNTKISPLFEGEKSYVHSVTTLATPHNGTTLADGSLLLPFVKDLLITAASFGGNDNLSLYDFKLDQWGLKKNTGESFFQYSNRILNSSIWKNTKDISQWDLSTDGAKELNNWVKTQLNVYYLSYSGHASQAAPITGLHLPHITMNKVLMGNAFFLGSYARYEENRPLIDTTWWQNDGVVNTSSMIAPSSNATVNNNESLQIGKWNHIETKANWDHLDMVGLSVSDTLGFSSIQEFYRAIAEKLSRLPK | not soluble |
| MAVESRSRVTSKLVKAHRAMLNSVTQEDLKVDRLPGADYPNPSKKYSSRTEFRDKTDYIMYNPRPRDEPSSENPVSVSPLLCELAAARSRIHFNPTETTIGIVTCGGICPGLNDVIRSITLTGINVYNVKRVIGFRFGYWGLSKKGSQTAIELHRGRVTNIHHYGGTILGSSRGPQDPKEMVDTLERLGVNILFTVGGDGTQRGALVISQEAKRRGVDISVFGVPKTIDNDLSFSHRTFGFQTAVEKAVQAIRAAYAEAVSANYGVGVVKLMGRDSGFIAAQAAVASAQANICLVPENPISEQEVMSLLERRFCHSRSCVIIVAEGFGQDWGRGSGGYDASGNKKLIDIGVILTEKVKAFLKANKSRYPDSTVKYIDPSYMIRACPPSANDALFCATLATLAVHEAMAGATGCIIAMRHNNYILVPIKVATSVRRVLDLRGQLWRQVREITVDLGSDVRLARKLEIRRELEAINRNRDRLHEELAKL | soluble |
